According to patent publication US20220354938A1:

Molecular target: C2 epitope-peptide (…, SEQ ID NO:21) / human HLA-A2 MHC class I molecule complex on the cell surface (human; human CMV)

What does the source list for “TCR CMV-pp65-PE STAR™ multimer reagent (Altor Bioscience Corp., Miramar, Fla., U.S.)”?
iMFI: 10100 RFU; percentage of pMHC I complex presenting cells: 35%
